Assays:
Details in all cases: both partners purified
[1] = biological target: T1, Truncated human primosome (Pol α: 334-1462; B subunit: 149-598; PriS: 1-420; PriL: 1-509) (human, UniProt P09884 334-1462; Q14181 149-598; P49642 1-420; P49643 1-509); experiment: pull-down
T1 construct: also called truncated primosome; Pol α - primase

[2] = biological target: T2, Full-length human primosome (Pol α: 1-1462; B subunit: 1-598; PriS: 1-420; PriL: 1-509) (human, UniProt P09884 1-1462; Q14181 1-598; P49642 1-420; P49643 1-509); experiment: pull-down
T2 construct: also called DNA polymerase α - primase complex; Pol α - primase

[3] = biological target: T1, Truncated human primosome (Pol α: …); experiment: […]) in 25 mM HEPES pH 7.2, 150 mM KCl, 1 mM DTT; […]
[4] = biological target: T3, Pol α catalytic subunit (334-1462), as in the truncated human primosome (human, UniProt P09884 334-1462); experiment: as above
T3 construct: also called DNA polymerase α; catalytic subunit of Pol α
T3 sequence (looked up): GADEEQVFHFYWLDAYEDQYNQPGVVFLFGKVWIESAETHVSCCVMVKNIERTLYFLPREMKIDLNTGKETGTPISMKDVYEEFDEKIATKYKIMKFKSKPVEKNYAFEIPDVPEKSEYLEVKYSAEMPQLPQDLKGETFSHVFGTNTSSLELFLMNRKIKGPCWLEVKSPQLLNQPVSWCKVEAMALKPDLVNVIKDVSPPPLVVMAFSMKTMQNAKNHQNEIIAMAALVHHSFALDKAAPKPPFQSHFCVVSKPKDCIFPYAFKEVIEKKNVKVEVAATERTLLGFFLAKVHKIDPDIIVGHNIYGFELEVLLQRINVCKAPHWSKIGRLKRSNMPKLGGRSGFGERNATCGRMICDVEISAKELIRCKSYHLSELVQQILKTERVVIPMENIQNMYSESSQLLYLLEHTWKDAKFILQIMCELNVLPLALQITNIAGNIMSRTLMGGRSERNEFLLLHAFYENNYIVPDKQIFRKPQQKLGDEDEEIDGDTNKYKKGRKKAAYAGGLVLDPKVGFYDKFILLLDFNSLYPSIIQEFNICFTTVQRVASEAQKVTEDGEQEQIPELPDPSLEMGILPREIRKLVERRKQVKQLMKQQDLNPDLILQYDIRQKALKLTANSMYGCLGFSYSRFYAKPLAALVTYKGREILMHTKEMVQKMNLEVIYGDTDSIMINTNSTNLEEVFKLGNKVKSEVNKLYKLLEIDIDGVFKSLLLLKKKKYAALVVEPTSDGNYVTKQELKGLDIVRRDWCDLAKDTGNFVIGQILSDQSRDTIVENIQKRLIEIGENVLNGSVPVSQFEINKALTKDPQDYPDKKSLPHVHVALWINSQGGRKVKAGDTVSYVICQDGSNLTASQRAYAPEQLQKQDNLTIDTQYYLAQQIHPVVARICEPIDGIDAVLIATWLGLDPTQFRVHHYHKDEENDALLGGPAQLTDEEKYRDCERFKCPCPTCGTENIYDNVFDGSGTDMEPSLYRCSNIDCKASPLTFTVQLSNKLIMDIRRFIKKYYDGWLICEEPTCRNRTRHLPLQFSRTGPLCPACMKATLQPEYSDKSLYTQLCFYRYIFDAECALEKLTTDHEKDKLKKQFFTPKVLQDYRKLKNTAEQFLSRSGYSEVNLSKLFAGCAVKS

T1 sequence (Q14181 149-598, chain 2 of 3): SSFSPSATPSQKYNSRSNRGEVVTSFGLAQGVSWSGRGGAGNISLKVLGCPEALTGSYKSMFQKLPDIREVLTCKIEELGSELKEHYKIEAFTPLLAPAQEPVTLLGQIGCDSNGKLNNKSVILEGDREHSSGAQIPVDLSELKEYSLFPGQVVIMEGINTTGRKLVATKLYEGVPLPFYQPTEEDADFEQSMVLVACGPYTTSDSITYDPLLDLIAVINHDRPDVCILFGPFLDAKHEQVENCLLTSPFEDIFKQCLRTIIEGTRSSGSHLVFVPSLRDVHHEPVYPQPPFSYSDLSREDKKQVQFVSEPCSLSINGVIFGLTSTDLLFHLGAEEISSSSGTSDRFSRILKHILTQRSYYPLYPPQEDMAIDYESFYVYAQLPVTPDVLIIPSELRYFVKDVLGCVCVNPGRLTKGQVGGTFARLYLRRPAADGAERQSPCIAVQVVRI
T1 sequence (P49642 whole entry, chain 3 of 3, the tested form may be a part): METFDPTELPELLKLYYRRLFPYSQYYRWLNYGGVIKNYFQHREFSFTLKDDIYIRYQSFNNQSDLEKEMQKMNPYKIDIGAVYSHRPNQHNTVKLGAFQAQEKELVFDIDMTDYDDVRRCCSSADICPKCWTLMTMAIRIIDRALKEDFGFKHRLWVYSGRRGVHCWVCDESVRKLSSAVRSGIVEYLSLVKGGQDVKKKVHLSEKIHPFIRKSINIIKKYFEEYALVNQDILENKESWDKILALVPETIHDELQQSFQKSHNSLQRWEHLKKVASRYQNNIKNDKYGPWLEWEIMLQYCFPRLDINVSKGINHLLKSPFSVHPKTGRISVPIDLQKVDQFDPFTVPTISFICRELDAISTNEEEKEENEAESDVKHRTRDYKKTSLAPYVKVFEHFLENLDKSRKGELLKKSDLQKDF
T1 sequence (P49643 whole entry, chain 4 of 3, the tested form may be a part): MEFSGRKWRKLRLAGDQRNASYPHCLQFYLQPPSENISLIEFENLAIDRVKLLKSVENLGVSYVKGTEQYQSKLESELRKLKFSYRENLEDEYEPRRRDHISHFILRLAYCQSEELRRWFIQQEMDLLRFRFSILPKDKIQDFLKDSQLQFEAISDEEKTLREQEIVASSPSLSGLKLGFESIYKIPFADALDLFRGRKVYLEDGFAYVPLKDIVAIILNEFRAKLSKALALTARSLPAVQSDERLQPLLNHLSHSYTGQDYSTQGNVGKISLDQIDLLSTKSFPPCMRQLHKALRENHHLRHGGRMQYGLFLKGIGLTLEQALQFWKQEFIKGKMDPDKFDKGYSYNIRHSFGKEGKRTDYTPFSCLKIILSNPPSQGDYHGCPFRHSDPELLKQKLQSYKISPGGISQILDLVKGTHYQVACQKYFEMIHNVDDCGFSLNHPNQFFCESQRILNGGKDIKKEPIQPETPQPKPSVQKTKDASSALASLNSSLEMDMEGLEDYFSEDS
T2 sequence (Q14181 whole entry, chain 2 of 3): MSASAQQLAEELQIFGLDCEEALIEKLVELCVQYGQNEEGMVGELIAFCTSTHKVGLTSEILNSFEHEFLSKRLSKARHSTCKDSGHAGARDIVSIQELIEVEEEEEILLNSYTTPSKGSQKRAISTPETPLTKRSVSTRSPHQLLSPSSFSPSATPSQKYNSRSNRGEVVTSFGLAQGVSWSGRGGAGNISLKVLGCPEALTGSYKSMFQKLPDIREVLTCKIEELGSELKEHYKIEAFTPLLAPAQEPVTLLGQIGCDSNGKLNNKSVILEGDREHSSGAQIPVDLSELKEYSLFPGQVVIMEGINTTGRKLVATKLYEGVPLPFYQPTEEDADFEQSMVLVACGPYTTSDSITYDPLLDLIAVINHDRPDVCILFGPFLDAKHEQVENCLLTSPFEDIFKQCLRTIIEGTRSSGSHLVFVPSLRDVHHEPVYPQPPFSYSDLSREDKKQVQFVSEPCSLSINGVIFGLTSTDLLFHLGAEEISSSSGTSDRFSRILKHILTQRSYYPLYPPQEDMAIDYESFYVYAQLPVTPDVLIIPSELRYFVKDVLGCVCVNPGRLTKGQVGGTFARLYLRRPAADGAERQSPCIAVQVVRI
T2 sequence (P49642 whole entry, chain 3 of 3): as the sequence (P49642 whole entry, chain 3 of 3, the tested form may be a part) above
T2 sequence (P49643 whole entry, chain 4 of 3): as the sequence (P49643 whole entry, chain 4 of 3, the tested form may be a part) above

B1: MBP-tagged SARS-CoV nsp1 (full-length, His6-MBP fusion) (natural protein)
chain: MESLVLGVNEKTHVQLSLPVLQVRDVLVRGFGDSVEEALSEAREHLKNGTCGLVELEKGVLPQLEQPYVFIKRSDALSTNHGHKVVELVAEMDGIQYGRSGITLGVLVPHVGETPIAYRNVLLRKNGNKGAGGHSYGIDLKSYDLGDELGTDPIEDYEQNWNTKHGSGALRELTRELNGG
[1]
  binding result: binds
[2]
  binding result: binds

B2: SARS-CoV nsp1 (13-127), His6-MBP tag cleaved (domain or fragment)
chain: HVQLSLPVLQVRDVLVRGFGDSVEEALSEAREHLKNGTCGLVELEKGVLPQLEQPYVFIKRSDALSTNHGHKVVELVAEMDGIQYGRSGITLGVLVPHVGETPIAYRNVLLRKNG
[3]
  binding result: binds
[4]
  binding result: binds

B3: SARS-CoV nsp1 middle domain (13-127), His6-MBP fusion (domain or fragment)
chain: HVQLSLPVLQVRDVLVRGFGDSVEEALSEAREHLKNGTCGLVELEKGVLPQLEQPYVFIKRSDALSTNHGHKVVELVAEMDGIQYGRSGITLGVLVPHVGETPIAYRNVLLRKNG
[1]
  binding result: binds

B4: SARS-CoV-2 nsp1 middle domain (13-127), His6-MBP fusion (domain or fragment)
chain: HVQLSLPVLQVRDVLVRGFGDSVEEVLSEARQHLKDGTCGLVEVEKGVLPQLEQPYVFIKRSDARTAPHGHVMVELVAELEGIQYGRSGETLGVLVPHVGEIPVAYRKVLLRKNG
[1]
  binding result: binds

Source: paper doi:10.1101/2021.06.17.448816 (bioRxiv, 2021)
